pIC50: −log10 of the molar value. Where no end group is shown, it is not given here.
Assays:
rKV1.6 (rat) [1] = molecular target: rKV1.6 (rat) (UniProt P17659)
rKV1.1 (rat) [2] = molecular target: rKV1.1 (rat) (UniProt P10499)
rKV1.2 (rat) [3] = molecular target: rKV1.2 (rat) (UniProt P63142)
Shaker IR (insect) [4] = molecular target: Shaker IR (insect) (UniProt P08510)
hKV1.3 [5] = molecular target: T1, hKV1.3 (Homo sapiens, UniProt P22001)
rKV1.6 (rat) [6] = molecular target: rKV1.6 (rat) (UniProt P17659); remark: listed apart in the source
rKV1.1 (rat) [7] = molecular target: rKV1.1 (rat) (UniProt P10499); remark: listed apart in the source
rKV1.2 (rat) [8] = molecular target: rKV1.2 (rat) (UniProt P63142); remark: listed apart in the source
Shaker IR (insect) [9] = molecular target: Shaker IR (insect) (UniProt P08510); remark: listed apart in the source
hKV1.3 [10] = molecular target: T1, hKV1.3; remark: listed apart in the source
KV1.6 = conditions: cited from earlier work
Description: In order to characterize the potency and selectivity profile, concentration-response curves were constructed for BcsTx1. […] A concentration-response curve was also constructed to determine the concentration at which BcsTx2 blocked half of the channels.

KV3.2 channels = conditions: cited from earlier work
[11] = system: intermediate conductance K (Ca) channels; conditions: cited from earlier work
KV1.3 channels = conditions: cited from earlier work
Experimental: (§1) The pharmacological profile of BcsTx-1 and -2 were determined on a wide range of twelve KV channels (rKV1.1, rKV1.2, hKV1.3, rKV1.4, rKV1.5, rKV1.6, rKV2.1, rKV3.1, rKV4.2, rKV4.3, hERG and the insect channel Shaker IR; r: rat and h: human). Channels were expressed in X. laevis oocytes, and their currents were recorded by using two-electrode voltage-clamp technique. BcsTx1 (0.5 µM) inh ...

KV1.1-4 and KV1.6 = conditions: cited from earlier work
Experimental: as §1

Sequence of Shaker IR (insect) (P08510 whole entry): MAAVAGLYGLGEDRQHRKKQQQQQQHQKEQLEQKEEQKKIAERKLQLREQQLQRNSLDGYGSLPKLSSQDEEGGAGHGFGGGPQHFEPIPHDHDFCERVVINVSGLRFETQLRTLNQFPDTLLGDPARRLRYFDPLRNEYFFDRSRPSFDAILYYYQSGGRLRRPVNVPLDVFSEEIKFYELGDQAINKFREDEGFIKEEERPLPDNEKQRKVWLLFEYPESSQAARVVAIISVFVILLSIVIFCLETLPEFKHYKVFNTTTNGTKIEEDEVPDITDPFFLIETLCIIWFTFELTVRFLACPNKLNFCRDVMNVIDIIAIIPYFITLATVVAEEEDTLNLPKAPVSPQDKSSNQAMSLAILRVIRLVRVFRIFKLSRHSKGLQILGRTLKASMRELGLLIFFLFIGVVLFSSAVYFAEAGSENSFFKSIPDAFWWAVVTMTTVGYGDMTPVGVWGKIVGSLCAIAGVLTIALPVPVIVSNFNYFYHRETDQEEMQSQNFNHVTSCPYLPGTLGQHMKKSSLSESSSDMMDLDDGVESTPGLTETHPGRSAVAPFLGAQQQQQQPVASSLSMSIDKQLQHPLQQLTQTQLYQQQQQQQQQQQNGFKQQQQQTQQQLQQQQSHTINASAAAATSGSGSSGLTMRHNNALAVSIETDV
Sequence of rKV1.1 (rat) (P10499 whole entry): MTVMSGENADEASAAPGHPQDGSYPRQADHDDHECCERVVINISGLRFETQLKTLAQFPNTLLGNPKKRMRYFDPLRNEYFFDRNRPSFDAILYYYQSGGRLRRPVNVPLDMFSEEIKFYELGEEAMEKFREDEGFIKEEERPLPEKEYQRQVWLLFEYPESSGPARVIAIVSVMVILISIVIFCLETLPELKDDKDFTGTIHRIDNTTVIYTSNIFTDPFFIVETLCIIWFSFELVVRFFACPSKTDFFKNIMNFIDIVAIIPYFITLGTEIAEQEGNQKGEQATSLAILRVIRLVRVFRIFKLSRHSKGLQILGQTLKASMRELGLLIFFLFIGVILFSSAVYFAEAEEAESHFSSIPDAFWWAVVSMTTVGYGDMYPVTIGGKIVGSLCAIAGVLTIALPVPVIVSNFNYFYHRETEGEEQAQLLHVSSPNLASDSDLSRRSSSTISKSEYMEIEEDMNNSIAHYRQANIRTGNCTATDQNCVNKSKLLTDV
Sequence of rKV1.6 (rat) (P17659 whole entry): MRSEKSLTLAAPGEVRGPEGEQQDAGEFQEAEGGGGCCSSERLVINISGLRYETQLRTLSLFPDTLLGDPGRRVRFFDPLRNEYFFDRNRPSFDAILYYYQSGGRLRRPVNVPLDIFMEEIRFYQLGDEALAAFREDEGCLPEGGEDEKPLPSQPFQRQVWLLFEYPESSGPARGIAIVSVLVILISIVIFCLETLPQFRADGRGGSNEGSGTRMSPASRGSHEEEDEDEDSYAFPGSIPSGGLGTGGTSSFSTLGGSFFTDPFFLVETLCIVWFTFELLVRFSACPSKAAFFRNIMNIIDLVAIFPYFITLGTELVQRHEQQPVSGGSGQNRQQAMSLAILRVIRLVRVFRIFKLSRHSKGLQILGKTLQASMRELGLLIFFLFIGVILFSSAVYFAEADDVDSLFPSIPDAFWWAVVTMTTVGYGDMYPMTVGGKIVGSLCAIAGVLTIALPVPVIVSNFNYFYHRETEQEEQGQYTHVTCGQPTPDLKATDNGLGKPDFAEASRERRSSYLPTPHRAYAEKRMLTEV
Sequence of rKV1.2 (rat) (P63142 whole entry): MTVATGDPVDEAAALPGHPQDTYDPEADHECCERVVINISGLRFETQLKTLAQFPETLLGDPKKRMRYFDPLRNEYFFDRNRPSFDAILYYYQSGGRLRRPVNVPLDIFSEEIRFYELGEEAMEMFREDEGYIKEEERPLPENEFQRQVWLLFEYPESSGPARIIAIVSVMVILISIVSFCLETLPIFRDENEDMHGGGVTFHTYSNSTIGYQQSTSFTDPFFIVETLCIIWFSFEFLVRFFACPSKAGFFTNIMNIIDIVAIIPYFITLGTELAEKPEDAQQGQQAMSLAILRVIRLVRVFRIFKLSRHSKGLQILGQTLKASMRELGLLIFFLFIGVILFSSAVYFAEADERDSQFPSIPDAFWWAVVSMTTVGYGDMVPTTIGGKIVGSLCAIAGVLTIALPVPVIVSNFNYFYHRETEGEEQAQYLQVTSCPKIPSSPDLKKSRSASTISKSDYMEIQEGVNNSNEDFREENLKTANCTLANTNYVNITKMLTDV
T1 sequence (P22001 whole entry): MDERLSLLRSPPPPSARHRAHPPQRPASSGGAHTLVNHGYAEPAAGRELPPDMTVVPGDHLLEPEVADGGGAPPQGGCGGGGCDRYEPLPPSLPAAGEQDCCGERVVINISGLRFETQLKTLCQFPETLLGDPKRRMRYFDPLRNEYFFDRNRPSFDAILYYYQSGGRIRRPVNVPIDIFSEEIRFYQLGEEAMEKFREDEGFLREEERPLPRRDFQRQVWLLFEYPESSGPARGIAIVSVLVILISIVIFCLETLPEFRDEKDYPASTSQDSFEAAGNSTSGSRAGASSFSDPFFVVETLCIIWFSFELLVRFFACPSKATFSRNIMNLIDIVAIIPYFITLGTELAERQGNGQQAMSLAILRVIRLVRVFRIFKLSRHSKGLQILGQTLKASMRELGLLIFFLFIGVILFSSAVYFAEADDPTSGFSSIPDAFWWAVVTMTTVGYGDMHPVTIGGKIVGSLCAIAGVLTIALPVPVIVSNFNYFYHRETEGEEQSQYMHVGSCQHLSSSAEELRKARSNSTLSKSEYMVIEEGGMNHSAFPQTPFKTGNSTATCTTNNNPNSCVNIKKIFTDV

In the case of “BcsTx2 (from UniProt C0HJC3 1-37) (peptide)”, the IC50 of block of the channel's K+ current, two-electrode voltage clamp on X. laevis oocytes, concentration-response curve (rKV1.6 (rat) [1]) was 7.76 nM, the IC50 of block of the channel's K+ current, two-electrode voltage clamp on X. laevis oocytes, concentration-response curve (rKV1.1 (rat) [2]) was 14.4 nM and the IC50 of block of the channel's K+ current, two-electrode voltage clamp on X. laevis oocytes, concentration-response curve (rKV1.2 (rat) [3]) was 80.4 nM. The IC50 of block of the channel's K+ current, two-electrode voltage clamp on X. laevis oocytes, concentration-response curve (Shaker IR (insect) [4]) was 49.1 nM, the IC50 of block of the channel's K+ current, two-electrode voltage clamp on X. laevis oocytes, concentration-response curve (hKV1.3 [5]) was 13.1 nM and the percent inhibition of the channel's current by 3 µM BcsTx2, two-electrode voltage clamp on X. laevis oocytes (rKV1.6 (rat) [6]) was 98%. For the same substance, the percent inhibition of the channel's current by 3 µM BcsTx2, two-electrode voltage clamp on X. laevis oocytes (rKV1.1 (rat) [7]) was 96%, the percent inhibition of the channel's current by 3 µM BcsTx2, two-electrode voltage clamp on X. laevis oocytes (rKV1.2 (rat) [8]) was 100% and the percent inhibition of the channel's current by 3 µM BcsTx2, two-electrode voltage clamp on X. laevis oocytes (Shaker IR (insect) [9]) was 94%. For the same substance, the percent inhibition of the channel's current by 3 µM BcsTx2, two-electrode voltage clamp on X. laevis oocytes (hKV1.3 [10]) was 100%.
In the case of “MgTX: toxin from Centruroides margaritatus (TIINVKCTSPKQCLPPCKAQFGQSAGAKCMNGKCKCYPH; ends and bridges not checked; cysteine pairing not given here; UniProt P40755 1-39, looked up)”, the pIC50 (KV1.6) is listed as 8.30 and the “binding affinity to KV1.6 (in words)” value (KV1.6) is listed as “binds with very high affinity to KV1.6”.
In the case of “ShK: type 1 sea anemone toxin from Stichodactyla helianthus (Swiss-Prot P29187)”, the “activity against KV3.2 (in words)” value (KV3.2 channels) is given as “shows activity against KV3.2 channels”, the “block of intermediate conductance K (Ca) channels (in words)” value [11] is given as “block intermediate conductance K (Ca) channels” and the “block of KV1.3 (in words)” value (KV1.3 channels) is given as “block KV1.3 channels”. For the same substance, the “block of KV1.1-4 and KV1.6 (in words)” value (KV1.1-4 and KV1.6) was “blocks KV1.1-4 and KV1.6”.

Source: article PMC3705364, “Biochemical and Electrophysiological Characterization of Two Sea Anemone Type 1 Potassium Toxins from a Geographically Distant Population of Bunodosoma caissarum” (Marine Drugs, 2013)
